In US20230312709A1 (GUANGDONG FEIPENG PHARMACEUTICAL, published 2023):
Where two headings read alike, the source gives them in different places.

Assays:
[1] = target: T1, human CD47 on CCRF-CEM cells (human, UniProt Q08722 19-323); experiment: flow cytometry on CCRF-CEM cells, MFI curve
T1 construct: whole, on cells
Protocol: The specific steps were as follows.
A cell line CCRF-CEM (Cell Bank of Chinese Academy of Sciences, Shanghai) expressing human CD47 was used, which belongs to human acute lymphoblastic leukemia T lymphocytes. […] Then, the cells were washed at least twice, a PE Goat anti human IgG Fc (1:500× dilution) fluorescent secondary antibody was prepared with a FCM buffer (1×PBS+3% BSA), added to a corresponding 96-well plate according to 100 μL/well, and incubated in a refrigerator at 4° C. for 30 min. The 96-well plate was taken out, and centrifuged at 250 g for 5 min, after a supernatant was carefully removed, the FCM buffer was added at 200 μL/well, and it was centrifuged again at 250 g for 5 min, the supernatant was carefully removed. The cells were washed at least twice and resuspended using 100 μL/well 1×PBS, and analyzed by the flow cytometry, and a concentration-dependent curve was fitted with GraphPad according to the mean fluorescence intensity (MFI) thereof.

[2] = target: T2, monkey CD47 on CHO-cynoCD47 cells (monkey); experiment: flow cytometry on CHO-cynoCD47 cells, MFI curve
T2 construct: whole, on cells; Cell line named CHO-cynoCD47; the text calls the species 'monkey'
Protocol: Then, the cells were washed at least twice, a PE Goat anti human IgG Fc (1:500× dilution) fluorescent secondary antibody was prepared with a FCM buffer (1×PBS+3% BSA), added to a corresponding 96-well plate according to 100 μL/well, and incubated in a refrigerator at 4° C. for 30 min. The 96-well plate was taken out, and centrifuged at 250 g for 5 min, after a supernatant was carefully removed, the FCM buffer was added at 200 μL/well, and it was centrifuged again at 250 g for 5 min, the supernatant was carefully removed. The cells were washed at least twice and resuspended with 1×PBS at 100 μL/well, and analyzed by the flow cytometry, and a concentration-dependent curve was fitted with GraphPad according to MFI thereof.

[3] = target: T1, human CD47 on CCRF-CEM cells; experiment: flow cytometry competition on CCRF-CEM cells; blocked ligand hSIRPα-mFC, detected with PE goat anti-mouse IgG Fc
[4] = target: T3, hCD47-ECD-HIS recombinant protein (human, UniProt Q08722 19-139, limits assumed); experiment: BLI (ForteBio), antibody on AHC sensor, 100 nM CD47 antigen, 1:1 model
T3 construct: extracellular domain; also called hCD47 antigen; CD47 antigen
Protocol: An equilibrium dissociation constant (KD) of the antibody of the present application binding to human CD47 (hCD47) was determined by a biofilm interferometry (ForteBio). […] Kinetic analysis was performed with a 1:1 binding model.

[5] = target: T1, human CD47 on CCRF-CEM cells; experiment: flow cytometry competition on CCRF-CEM cells; blocked ligand hSIRPα-mFC, detected with PE goat anti-mouse IgG Fc; remark: listed apart in the source

Binder | EC50 [1] [nM] | EC50 [2] [nM] | IC50 (read off the curve) [3] [nM] | Kd [4] [nM] | koff [4] [s⁻¹] | kon [4] [M⁻¹ s⁻¹] | IC50 (read off the curve) [5] [nM]
7A11H32 (antibody, V domains shown, also called CD47 antibody) VH: QVQLVQSGAEVKKPGSSVKVSCKASGSSFTSNWMNWVRQAPGQGLEWIGMIHPSDSETRLNQKFKDRVTITADKSTSTAYMELSSLRSEDTAVYYCARGTTVVDAFAYWGQGTTVTVSS VL: DIQMTQSPSSLSASVGDRVTMTCKSSQSLLNSRTRKNYLAWYQQKPGKAPKLLIYWASTRESGVPSRFSGSGSGTDFTLTISSLQPEDFATYYCKQSYNLRTFGGGTKLEIK | 0.717 | 17.1 | ~2 |  |  |  | 
7A11H12 (antibody, V domains shown, also called CD47 antibody) VH: QVQLVQPGAEVKKPGASVKLSCKASGSSFTSNWMNWVRQAPGQGLEWIGMIHPSDSETRLNQKFKDRATLTVDKSTSTAYMELSSPRSEDTAVYYCARGTTVVDAFAYWGQGTTVTVSS VL: DIQMTQSPSSLSASVGDRVTMTCKSSQSLLNSRTRKNYLAWYQQKPGKAPKLLIYWASTRESGVPSRFSGSGSGTDFTLTISSLQPEDFATYYCKQSYNLRTFGGGTKLEIK | 0.716 | 7.35 | ~0.9 | 0.459 |  |  | 
7A11H33 (antibody, V domains shown, also called CD47 antibody) VH: QVQLVQSGAEVKKPGSSVKVSCKASGSSFTSNWMNWVRQAPGQGLEWIGMIHPSDSETRLNQKFKDRVTITADKSTSTAYMELSSLRSEDTAVYYCARGTTVVDAFAYWGQGTTVTVSS VL: DIQMTQSPSSLSASVGDRVTMTCKSSQSLLNTRTRKNYLAWYQQKPGKAPKLLIYWASTRESGVPSRFSGSGSGTDFTLTISSLQPEDFATYYCKQSYNLRTFGGGTKLEIK | 0.76 | 4.85 |  | 0.36 |  |  | 
7A11H42 (antibody, V domains shown, also called CD47 antibody) VH: QVQLVQSGAEVKKPGSSVKVSCKASGSSFTSNWMNWVRQAPGQGLEWIGMIHPSDSETRLNQKFQGRVTITADKSTSTAYMELSSLRSEDTAVYYCARGTTVVDAFAYWGQGTTVTVSS VL: DIQMTQSPSSLSASVGDRVTMTCKSSQSLLNSRTRKNYLAWYQQKPGKAPKLLIYWASTRESGVPSRFSGSGSGTDFTLTISSLQPEDFATYYCKQSYNLRTFGGGTKLEIK | 0.727 | 5 | ~2 | 0.309 |  |  | 
7A11H52 (antibody, V domains shown, also called CD47 antibody) VH: QVQLVQSGAEVKKPGSSVKVSCKASGGTFTSNWMNWVRQAPGQGLEWIGMIHPSDSETRLNQKFQGRVTITADKSTSTAYMELSSLRSEDTAVYYCARGTTVVDAFAYWGQGTTVTVSS VL: DIQMTQSPSSLSASVGDRVTMTCKSSQSLLNSRTRKNYLAWYQQKPGKAPKLLIYWASTRESGVPSRFSGSGSGTDFTLTISSLQPEDFATYYCKQSYNLRTFGGGTKLEIK | 0.915 | 4.51 |  |  |  |  | 
7A11H15 (antibody, V domains shown, also called CD47 antibody) VH: QVQLVQPGAEVKKPGASVKLSCKASGSSFTSNWMNWVRQAPGQGLEWIGMIHPSDSETRLNQKFKDRATLTVDKSTSTAYMELSSPRSEDTAVYYCARGTTVVDAFAYWGQGTTVTVSS VL: EIVMTQSPPTLSLSPGERVTMSCKSSQSLLNSRTRKNYLAWYQQKPGQAPRLLIYWASTRESGIPARFSGSGSGTDFTLTISSLQPEDFAVYYCKQSYNLRTFGGGTKLEIK | 0.723 | 7.27 |  | 0.212 | 0.000313 | 1.48e+06 | ~2
7A11H11 (antibody, V domains shown, also called CD47 antibody) VH: QVQLVQPGAEVKKPGASVKLSCKASGSSFTSNWMNWVRQAPGQGLEWIGMIHPSDSETRLNQKFKDRATLTVDKSTSTAYMELSSPRSEDTAVYYCARGTTVVDAFAYWGQGTTVTVSS VL: DIVMTQSPDSLAVSLGERATMNCKSSQSLLNSRTRKNYLAWYQQKPGQPPKLLIYWASTRESGVPDRFSGSGSGTDFTLTISSLQAEDVAVYYCKQSYNLRTFGGGTKLEIK | 0.822 | 8.93 | ~2 | 0.59 |  |  | 
7A11H22 (antibody, V domains shown, also called CD47 antibody) VH: QVQLVQSGAEVKKPGASVKVSCKASGSSFTSNWMNWVRQAPGQGLEWIGMIHPSDSETRLNQKFKDRATLTVDKSTSTAYMELSSLRSEDTAVYYCARGTTVVDAFAYWGQGTTVTVSS VL: DIQMTQSPSSLSASVGDRVTMTCKSSQSLLNSRTRKNYLAWYQQKPGKAPKLLIYWASTRESGVPSRFSGSGSGTDFTLTISSLQPEDFATYYCKQSYNLRTFGGGTKLEIK | 0.82 | 8.55 | ~2 | 0.74 |  |  | 
7A11H35 (antibody, V domains shown, also called CD47 antibody) VH: QVQLVQSGAEVKKPGSSVKVSCKASGSSFTSNWMNWVRQAPGQGLEWIGMIHPSDSETRLNQKFKDRVTITADKSTSTAYMELSSLRSEDTAVYYCARGTTVVDAFAYWGQGTTVTVSS VL: EIVMTQSPPTLSLSPGERVTMSCKSSQSLLNSRTRKNYLAWYQQKPGQAPRLLIYWASTRESGIPARFSGSGSGTDFTLTISSLQPEDFAVYYCKQSYNLRTFGGGTKLEIK | 0.862 | 4.38 |  | 0.881 |  |  | 
7A11H55 (antibody, V domains shown, also called CD47 antibody) VH: QVQLVQSGAEVKKPGSSVKVSCKASGGTFTSNWMNWVRQAPGQGLEWIGMIHPSDSETRLNQKFQGRVTITADKSTSTAYMELSSLRSEDTAVYYCARGTTVVDAFAYWGQGTTVTVSS VL: EIVMTQSPPTLSLSPGERVTMSCKSSQSLLNSRTRKNYLAWYQQKPGQAPRLLIYWASTRESGIPARFSGSGSGTDFTLTISSLQPEDFAVYYCKQSYNLRTFGGGTKLEIK | 1.21 | 4.62 |  |  |  |  | 
7A11H14 (antibody, V domains shown, also called CD47 antibody) VH: QVQLVQPGAEVKKPGASVKLSCKASGSSFTSNWMNWVRQAPGQGLEWIGMIHPSDSETRLNQKFKDRATLTVDKSTSTAYMELSSPRSEDTAVYYCARGTTVVDAFAYWGQGTTVTVSS VL: DIVMTQSPDSLAVSLGERATMNCKSSQSLLNTRTRKNYLAWYQQKPGQPPKLLIYWASTRESGVPDRFSGSGSGTDFTLTISSLQAEDVAVYYCKQSYNLRTFGGGTKLEIK | 0.933 | 4.96 |  | 0.562 |  |  | 
7A11H34 (antibody, V domains shown, also called CD47 antibody) VH: QVQLVQSGAEVKKPGSSVKVSCKASGSSFTSNWMNWVRQAPGQGLEWIGMIHPSDSETRLNQKFKDRVTITADKSTSTAYMELSSLRSEDTAVYYCARGTTVVDAFAYWGQGTTVTVSS VL: DIVMTQSPDSLAVSLGERATMNCKSSQSLLNTRTRKNYLAWYQQKPGQPPKLLIYWASTRESGVPDRFSGSGSGTDFTLTISSLQAEDVAVYYCKQSYNLRTFGGGTKLEIK | 1.2 | 8.61 |  |  |  |  | 
Hu5F9-G4 (antibody, V domains shown) VH: QVQLVQSGAEVKKPGASVKVSCKASGYTFTNYNMHWVRQAPGQRLEWMGTIYPGNDDTSYNQKFKDRVTITADTSASTAYMELSSLRSEDTAVYYCARGGYRAMDYWGQGTLVTVSS VL: DIVMTQSPLSLPVTPGEPASISCRSSQSIVYSNGNTYLGWYLQKPGQSPQLLIYKVSNRFSGVPDRFSGSGSGTDFTLKISRVEAEDVGVYYCFQGSHVPYTFGQGTKLEIKR |  | 5.12 |  |  |  |  | 
